Measured values published in paper PMC3981819, “Signaling Properties and Pharmacological Analysis of Two Sulfakinin Receptors from the Red Flour Beetle, Tribolium castaneum” (PLoS ONE, 2014).
One block for each molecule: values may come before it. Square brackets hold non-standard residues; d marks the D form. Ends that are not written are not given here. sY = N[C@@H](Cc1ccc(OS(=O)(=O)O)cc1)C(=O)O; pGlu = O=C1CC[C@@H](C(=O)O)N1

Legend:
Trica-SKR1 = test: Aequorin-luminescence assay, CHO-WTA11 cells (Gα16) transfected with Trica-SKR1; format: cell-based, Tribolium castaneum; settings: peptide at 1 μM, aequorin bioluminescence, relative to sTrica-SK(5–13) at 1 μM = 100%, at least three biological repeats, each in duplicate
Method: (§1) General pharmacological studies were performed in Chinese Hamster Ovary (CHO) WTA11 cells, stably coexpressing apoaequorin, a zeocin resistance gene and the promiscuous Gα16, which couples most agonist-induced GPCRs to the phospholipase C and Ca^2+ pathway irrespective of their natural signaling cascade. CHO-PAM28 cells stably expressing apoaequorin and a puromycin resistance gene but not Gα16 and HEK293T cells (Invitrogen) were used to determine possible effects on Ca^2+ and/or cAMP second messenger systems, respectively. All cell lines were cultured in Dulbecco’s Modified Eagles Medium nutrient mixture F12-Ham (DMEM/F12; Invitrogen) supplemented with 1% penicillin/streptomycin (10000 units/ml penicillin and 10 mg/ml streptomycin in 0.9% NaCl; Invitrogen) to prevent bacterial contamination of gram-positive and gram-negative bacteria. In CHO-WTA11 culture medium 250 μg/ml zeocin (Invitrogen) was added as a selection marker, while CHO-PAM28 culture medium was supplemented with 5 μg/ml puromycin to select cells stably expressing apoaequorin. All cell culture media were supplemented with 10% fetal bovine serum (inactivated at […]; Sigma-Aldrich).
(§2) Cells were cultured in vitro as a monolayer at 37°C with a constant supply of 5% CO2 and were subcultivated twice a week. Transfections of cells were performed in T75 flasks at 60–80% confluency. Transfection reagent for CHO cells was prepared by combining 3.75 ml Opti-MEM I (Invitrogen), 7.5 μg plasmid DNA and 18.75 μl of Plus Reagent (Invitrogen). After gently mixing and 5 min incubation at room temperature 45 μl of Lipofectamine LTX was added to the mixture. This transfection medium was incubated for 30 min at room temperature and added dropwise to the cells, supplemented with 3 ml of fresh culture medium. HEK 293T cells were cotransfected with a receptor construct (6 μg) and CRE-luciferase reporter construct (3 μg), consisting of the open reading frame of the luciferase gene, downstream of a multimerized cAMP-response-element (CRE) and promoter. After transfection, cells were grown overnight before an additional 20 ml of culture medium was supplemented. Cells were again incubated overnight for a final growth phase before luminescence screens were performed.
(§3) The aequorin luminescence assay was used to measure Ca^2+ signaling in CHO cell lines. Cells were detached using phosphate buffered saline (PBS) containing 0.2% EDTA and collected in 10 ml of DMEM/F-12 (without phenol red, with L-glutamine and 10 mM HEPES; Gibco). The viable cells were quantified using a NucleoCounter NC-100 (Chemometic). Cells were pelleted by 4 min centrifugation at 800 rpm at room temperature and resuspended in DMEM/BSA (DMEM/F-12 without phenol red, with L-glutamine and 10 mM HEPES, 0.1% bovine serum albumin) at a concentration of 5×10^6 cells/ml. Cells were then shielded from light and Coelenterazine H (Invitrogen) was added at a final concentration of 5 μM. Cells were gently shaken at room temperature for 4 h under dark conditions, allowing the aequorin holoenzyme to be reconstituted. After a 10-fold dilution in DMEM/BSA, cells were incubated another 30 min under the same conditions. Pharmacological ligands were dissolved in DMEM/BSA and 50 μl of ligand was added to wells of a 96-well plate. Wells containing 50 μl of DMEM/BSA were used as a negative control, while wells containing 1 μM of ATP served as positive control. Incubated cells were added to the wells of the 96-well plate and light emission was measured for 30 s using a Mithras LB940 (Berthold Technologies). After 30 s Triton X-100 (0.2% in DMEM/BSA) was added, lysing the cells and thus serving as an internal reference. Light emission was measured for an additional 8 s after Triton X-100 was introduced in the wells. Light emission from each well was calculated relative to the total response (ligand+Triton X-100) using the output file of Mikrowin2000 software (Mikrotek). Further analysis was done in Graphpad Prism 5.

Trica-SKR2 = test: Aequorin-luminescence assay, CHO-WTA11 cells (Gα16) transfected with Trica-SKR2; format: cell-based, Tribolium castaneum; settings: peptide at 1 μM, aequorin bioluminescence, relative to sTrica-SK(5–13) at 1 μM = 100%, at least three biological repeats, each in duplicate
Method: as §1, §2, §3

[1] = target: Tribolium castaneum sulfakinin receptor 1 (T. castaneum)
[2] = target: Tribolium castaneum sulfakinin receptor 2 (T. castaneum)

- aequorin bioluminescence in CHO-WTA11 cells transfected with the receptor, peptide at 1 μM, % of the response to 1 μM sTrica-SK(5–13) [1]: 5.1%
- aequorin bioluminescence in CHO-WTA11 cells transfected with the receptor, peptide at 1 μM, % of the response to 1 μM sTrica-SK(5–13) [2]: 11.1%
Molecule: FDDYGHARF-NH2 [2005[φ1]wp-3]

- aequorin bioluminescence in CHO-WTA11 cells transfected with the receptor, peptide at 1 μM, % of the response to 1 μM sTrica-SK(5–13) [1]: 10.1%
- aequorin bioluminescence in CHO-WTA11 cells transfected with the receptor, peptide at 1 μM, % of the response to 1 μM sTrica-SK(5–13) [2]: 12.1%
Molecule: FDDAGHMRF-NH2 [2008[φ1]wp-2]

- aequorin bioluminescence in CHO-WTA11 cells transfected with the receptor, peptide at 1 μM, % of the response to 1 μM sTrica-SK(5–13) [1]: 2.3%
- aequorin bioluminescence in CHO-WTA11 cells transfected with the receptor, peptide at 1 μM, % of the response to 1 μM sTrica-SK(5–13) [2]: 3.5%
Molecule: FDDYGAMRF-NH2 [2006[φ1]wp-1]

- aequorin bioluminescence in CHO-WTA11 cells transfected with the receptor, peptide at 1 μM, % of the response to 1 μM sTrica-SK(5–13) [1]: 29.9%
- aequorin bioluminescence in CHO-WTA11 cells transfected with the receptor, peptide at 1 μM, % of the response to 1 μM sTrica-SK(5–13) [2]: 23.5%
Molecule: FDDYGHMRF-NH2 [nonsulfated Trica-SK(5–13)]

- aequorin bioluminescence in CHO-WTA11 cells transfected with the receptor, peptide at 1 μM, % of the response to 1 μM sTrica-SK(5–13) [1]: 16.4%
- aequorin bioluminescence in CHO-WTA11 cells transfected with the receptor, peptide at 1 μM, % of the response to 1 μM sTrica-SK(5–13) [2]: 11.2%
Molecule: SPVDYDRPIMAF-NH2 [1432-2[φ]wp-6]

- aequorin bioluminescence in CHO-WTA11 cells transfected with the receptor, peptide at 1 μM, % of the response to 1 μM sTrica-SK(5–13) [1]: 27.2%
- aequorin bioluminescence in CHO-WTA11 cells transfected with the receptor, peptide at 1 μM, % of the response to 1 μM sTrica-SK(5–13) [2]: 17.1%
Molecule: DDYGHMRF-NH2 (ends and bridges not checked) [2009[φ1]wp-1]

- aequorin bioluminescence in CHO-WTA11 cells transfected with the receptor, peptide at 1 μM, % of the response to 1 μM sTrica-SK(5–13) [1]: 6.2%
- aequorin bioluminescence in CHO-WTA11 cells transfected with the receptor, peptide at 1 μM, % of the response to 1 μM sTrica-SK(5–13) [2]: 13.4%
B5: 1569[φ2]wp-4 (peptide)
peptide: PVD[sY]DRPIMAF-NH2
modifications: N-terminus assumed
SMILES: CC[C@H](C)[C@H](NC(=O)[C@@H]1CCCN1C(=O)[C@H](CCCNC(=N)N)NC(=O)[C@H](CC(=O)O)NC(=O)[C@H](Cc1ccc(OS(=O)(=O)O)cc1)NC(=O)[C@H](CC(=O)O)NC(=O)[C@@H](NC(=O)[C@@H]1CCCN1)C(C)C)C(=O)N[C@@H](CCSC)C(=O)N[C@@H](C)C(=O)N[C@@H](Cc1ccccc1)C(N)=O

- aequorin bioluminescence in CHO-WTA11 cells transfected with the receptor, peptide at 1 μM, % of the response to 1 μM sTrica-SK(5–13) [1]: 7.6%
- aequorin bioluminescence in CHO-WTA11 cells transfected with the receptor, peptide at 1 μM, % of the response to 1 μM sTrica-SK(5–13) [2]: 8.6%
Molecule: DYGHMRF-NH2 (ends and bridges not checked) [2010[φ1]wp-1]

- aequorin bioluminescence in CHO-WTA11 cells transfected with the receptor, peptide at 1 μM, % of the response to 1 μM sTrica-SK(5–13) [1]: 8.2%
- aequorin bioluminescence in CHO-WTA11 cells transfected with the receptor, peptide at 1 μM, % of the response to 1 μM sTrica-SK(5–13) [2]: 15.6%
Molecule: FDDYGHMRA-NH2 [2003[φ1]wp-2]

The remaining lines, values behind:

Molecule: FDDAGHMRFa [2008[φ1]wp-2, alanine scan analog of nsTrica-SK, tyrosine replaced]
- % Trica-SKR1 (relative activation) (Trica-SKR1): 10.1%
- % Trica-SKR2 (relative activation) (Trica-SKR2): 12.1%

B1: 1678B[φ1]wp-6 (peptide)
peptide: DG[sY]RPLQF-NH2
modifications: N-terminus assumed
SMILES: CC(C)C[C@H](NC(=O)[C@@H]1CCCN1C(=O)[C@H](CCCNC(=N)N)NC(=O)[C@H](Cc1ccc(OS(=O)(=O)O)cc1)NC(=O)CNC(=O)[C@@H](N)CC(=O)O)C(=O)N[C@@H](CCC(N)=O)C(=O)N[C@@H](Cc1ccccc1)C(N)=O
- aequorin bioluminescence in CHO-WTA11 cells transfected with the receptor, peptide at 1 μM, % of the response to 1 μM sTrica-SK(5–13) [1]: 28.5%
- aequorin bioluminescence in CHO-WTA11 cells transfected with the receptor, peptide at 1 μM, % of the response to 1 μM sTrica-SK(5–13) [2]: 19.9%

B2: 1678A[φ1]wp-4 (peptide)
peptide: D[sY]RPLQF-NH2
modifications: N-terminus assumed
SMILES: CC(C)C[C@H](NC(=O)[C@@H]1CCCN1C(=O)[C@H](CCCNC(=N)N)NC(=O)[C@H](Cc1ccc(OS(=O)(=O)O)cc1)NC(=O)[C@@H](N)CC(=O)O)C(=O)N[C@@H](CCC(N)=O)C(=O)N[C@@H](Cc1ccccc1)C(N)=O
- aequorin bioluminescence in CHO-WTA11 cells transfected with the receptor, peptide at 1 μM, % of the response to 1 μM sTrica-SK(5–13) [1]: 40.8%
- aequorin bioluminescence in CHO-WTA11 cells transfected with the receptor, peptide at 1 μM, % of the response to 1 μM sTrica-SK(5–13) [2]: 32.6%

B3: nsLocmi-SK (peptide)
peptide: [pGlu]LASDDYGHMRF-NH2
SMILES: CSCC[C@H](NC(=O)[C@H](Cc1c[nH]cn1)NC(=O)CNC(=O)[C@H](Cc1ccc(O)cc1)NC(=O)[C@H](CC(=O)O)NC(=O)[C@H](CC(=O)O)NC(=O)[C@H](CO)NC(=O)[C@H](C)NC(=O)[C@H](CC(C)C)NC(=O)[C@@H]1CCC(=O)N1)C(=O)N[C@@H](CCCNC(=N)N)C(=O)N[C@@H](Cc1ccccc1)C(N)=O
- aequorin bioluminescence in CHO-WTA11 cells transfected with the receptor, peptide at 1 μM, % of the response to 1 μM sTrica-SK(5–13) [1]: 22.2%
- aequorin bioluminescence in CHO-WTA11 cells transfected with the receptor, peptide at 1 μM, % of the response to 1 μM sTrica-SK(5–13) [2]: 18.2%

Molecule: GHMRF-NH2 [2053[φ1]wp-4]
- aequorin bioluminescence in CHO-WTA11 cells transfected with the receptor, peptide at 1 μM, % of the response to 1 μM sTrica-SK(5–13) [1]: 13.3%
- aequorin bioluminescence in CHO-WTA11 cells transfected with the receptor, peptide at 1 μM, % of the response to 1 μM sTrica-SK(5–13) [2]: 44.6%

Molecule: FDDYGHMAF-NH2 [2004[φ1]wp-1]
- aequorin bioluminescence in CHO-WTA11 cells transfected with the receptor, peptide at 1 μM, % of the response to 1 μM sTrica-SK(5–13) [1]: 5.9%
- aequorin bioluminescence in CHO-WTA11 cells transfected with the receptor, peptide at 1 μM, % of the response to 1 μM sTrica-SK(5–13) [2]: 7.3%

Molecule: YGHMRF-NH2 (ends and bridges not checked) [2011[φ1]wp-1]
- aequorin bioluminescence in CHO-WTA11 cells transfected with the receptor, peptide at 1 μM, % of the response to 1 μM sTrica-SK(5–13) [1]: 26.3%
- aequorin bioluminescence in CHO-WTA11 cells transfected with the receptor, peptide at 1 μM, % of the response to 1 μM sTrica-SK(5–13) [2]: 21.2%

Molecule: HMRF-NH2 [2052[φ1]wp-3]
- aequorin bioluminescence in CHO-WTA11 cells transfected with the receptor, peptide at 1 μM, % of the response to 1 μM sTrica-SK(5–13) [1]: 43.4%
- aequorin bioluminescence in CHO-WTA11 cells transfected with the receptor, peptide at 1 μM, % of the response to 1 μM sTrica-SK(5–13) [2]: 33.4%

Molecule: FDDYAHMRF-NH2 (ends and bridges not checked) [2007[φ1]wp-1]
- aequorin bioluminescence in CHO-WTA11 cells transfected with the receptor, peptide at 1 μM, % of the response to 1 μM sTrica-SK(5–13) [1]: 30.6%
- aequorin bioluminescence in CHO-WTA11 cells transfected with the receptor, peptide at 1 μM, % of the response to 1 μM sTrica-SK(5–13) [2]: 25.6%

B4: 1567[φ1]wp-5 (peptide)
peptide: SPVD[sY]DRPIMAF-NH2
modifications: N-terminus assumed
SMILES: CC[C@H](C)[C@H](NC(=O)[C@@H]1CCCN1C(=O)[C@H](CCCNC(=N)N)NC(=O)[C@H](CC(=O)O)NC(=O)[C@H](Cc1ccc(OS(=O)(=O)O)cc1)NC(=O)[C@H](CC(=O)O)NC(=O)[C@@H](NC(=O)[C@@H]1CCCN1C(=O)[C@@H](N)CO)C(C)C)C(=O)N[C@@H](CCSC)C(=O)N[C@@H](C)C(=O)N[C@@H](Cc1ccccc1)C(N)=O
- aequorin bioluminescence in CHO-WTA11 cells transfected with the receptor, peptide at 1 μM, % of the response to 1 μM sTrica-SK(5–13) [1]: 23.6%
- aequorin bioluminescence in CHO-WTA11 cells transfected with the receptor, peptide at 1 μM, % of the response to 1 μM sTrica-SK(5–13) [2]: 33.7%

Molecule: FDDYGHMR-NH2 (ends and bridges not checked) [2076[φ1]wp-2]
- aequorin bioluminescence in CHO-WTA11 cells transfected with the receptor, peptide at 1 μM, % of the response to 1 μM sTrica-SK(5–13) [1]: 25.8%
- aequorin bioluminescence in CHO-WTA11 cells transfected with the receptor, peptide at 1 μM, % of the response to 1 μM sTrica-SK(5–13) [2]: 19.7%
